Source: publication PMC7828300

Target: AAV12 capsid viral protein (VP) (Adeno-associated virus 12)
Test: cryo-EM structure

“AAV12 capsid viral protein (VP) (natural protein)” was tested, and the stoichiometry N was 60.
